# Values of other authors in paper PMC5113071.
# Where two headings read alike, the source gives them in different places.
# What was measured:
# NRP1 (Homo sapiens) [1] = molecular target: NRP1 (Homo sapiens) (UniProt O14786)
# [2] = molecular target: alpha-2-macroglobulin (Homo sapiens) (UniProt P01023)
# VEGFR2 (Homo sapiens) = VEGFR2 (Homo sapiens) (UniProt P35968)
# [3] = molecular target: alpha-2-macroglobulin fast form (Homo sapiens) (UniProt P01023)
# VEGFR1 (Homo sapiens) = VEGFR1 (Homo sapiens) (UniProt P17948)
# NRP1 (Homo sapiens) [4] = molecular target: NRP1 (Homo sapiens) (UniProt O14786); remark: listed apart in the source
# Chain of UniProt P35968 (P35968 20-1356): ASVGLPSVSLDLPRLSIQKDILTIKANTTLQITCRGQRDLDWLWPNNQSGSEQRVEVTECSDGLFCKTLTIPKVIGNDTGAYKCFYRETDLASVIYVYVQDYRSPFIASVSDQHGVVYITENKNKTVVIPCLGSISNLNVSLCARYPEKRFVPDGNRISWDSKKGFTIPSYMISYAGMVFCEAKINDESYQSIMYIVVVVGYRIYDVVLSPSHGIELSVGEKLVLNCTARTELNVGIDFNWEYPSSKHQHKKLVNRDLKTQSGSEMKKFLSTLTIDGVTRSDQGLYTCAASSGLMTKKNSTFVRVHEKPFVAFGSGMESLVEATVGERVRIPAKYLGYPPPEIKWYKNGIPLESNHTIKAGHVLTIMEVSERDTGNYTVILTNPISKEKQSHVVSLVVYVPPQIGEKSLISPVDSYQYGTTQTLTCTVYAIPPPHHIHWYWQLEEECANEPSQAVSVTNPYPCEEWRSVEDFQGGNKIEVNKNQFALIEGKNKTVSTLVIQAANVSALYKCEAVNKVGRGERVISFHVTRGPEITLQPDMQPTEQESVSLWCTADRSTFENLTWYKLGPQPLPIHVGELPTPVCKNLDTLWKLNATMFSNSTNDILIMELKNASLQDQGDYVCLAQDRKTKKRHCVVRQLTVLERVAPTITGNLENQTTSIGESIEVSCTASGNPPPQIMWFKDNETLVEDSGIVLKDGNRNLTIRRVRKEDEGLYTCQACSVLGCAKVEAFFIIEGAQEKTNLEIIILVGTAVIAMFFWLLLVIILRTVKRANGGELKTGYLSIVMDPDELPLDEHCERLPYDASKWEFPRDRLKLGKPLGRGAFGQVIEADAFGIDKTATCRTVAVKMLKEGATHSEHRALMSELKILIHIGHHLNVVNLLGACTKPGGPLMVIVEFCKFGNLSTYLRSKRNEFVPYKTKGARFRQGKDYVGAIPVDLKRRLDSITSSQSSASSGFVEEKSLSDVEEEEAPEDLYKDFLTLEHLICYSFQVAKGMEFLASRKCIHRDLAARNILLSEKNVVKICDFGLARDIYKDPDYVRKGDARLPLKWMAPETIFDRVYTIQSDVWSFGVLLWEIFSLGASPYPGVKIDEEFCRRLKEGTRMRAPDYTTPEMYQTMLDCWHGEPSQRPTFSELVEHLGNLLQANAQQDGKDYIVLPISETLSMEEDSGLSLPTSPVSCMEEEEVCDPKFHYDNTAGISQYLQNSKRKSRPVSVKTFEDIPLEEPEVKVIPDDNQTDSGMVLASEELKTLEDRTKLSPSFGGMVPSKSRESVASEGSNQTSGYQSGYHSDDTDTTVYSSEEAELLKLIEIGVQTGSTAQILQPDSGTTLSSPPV
substance,measurement,setting,value
VEGF165a and VEGF121 (from UniProt P15692),Kd,NRP1 (Homo sapiens) [1],0.312 nM
"VEGF165a, VEGF165b and VEGF121 (from UniProt P15692)",Kd,[2],4000 nM
same,Kd,VEGFR2 (Homo sapiens),0.1 nM
same,Kd,[3],420 nM
same,Kd,VEGFR1 (Homo sapiens),0.033 nM
sVEGFR1 (from UniProt P17948),Kd,NRP1 (Homo sapiens) [4],1.8 nM
